Measured values from article PMC4353811.

Legend:
Psy3-Csm2 = molecular target: T1, Psy3-Csm2 (Saccharomyces cerevisiae, UniProt Q12318;P40465 1-242;1-213); assay: EMSA
T1 sequence 1: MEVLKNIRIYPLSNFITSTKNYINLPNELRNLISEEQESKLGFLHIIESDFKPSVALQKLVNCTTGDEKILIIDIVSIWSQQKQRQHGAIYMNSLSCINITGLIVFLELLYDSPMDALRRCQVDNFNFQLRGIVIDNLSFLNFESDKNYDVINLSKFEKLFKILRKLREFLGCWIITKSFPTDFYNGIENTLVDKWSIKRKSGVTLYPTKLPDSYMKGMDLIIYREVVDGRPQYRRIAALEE
T1 sequence 2: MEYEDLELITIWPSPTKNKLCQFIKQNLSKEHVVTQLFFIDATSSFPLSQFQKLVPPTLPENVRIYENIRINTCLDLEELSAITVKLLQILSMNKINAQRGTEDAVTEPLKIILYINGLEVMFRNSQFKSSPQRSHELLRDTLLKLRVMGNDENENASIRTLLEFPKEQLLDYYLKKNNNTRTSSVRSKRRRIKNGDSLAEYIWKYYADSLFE

Psy3-Csm2-I40A/I83A = molecular target: T2, Psy3-Csm2-I40A/I83A (Saccharomyces cerevisiae, UniProt Q12318;P40465 1-242;1-213, I40A;I83A;Csm2:); assay: EMSA
T2 sequence 1: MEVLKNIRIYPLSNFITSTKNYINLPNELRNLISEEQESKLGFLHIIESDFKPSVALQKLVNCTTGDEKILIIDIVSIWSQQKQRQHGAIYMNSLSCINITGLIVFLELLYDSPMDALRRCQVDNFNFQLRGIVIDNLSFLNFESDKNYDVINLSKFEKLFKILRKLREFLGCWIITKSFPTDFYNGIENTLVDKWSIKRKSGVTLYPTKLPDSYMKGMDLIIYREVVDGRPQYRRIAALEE
T2 sequence 2: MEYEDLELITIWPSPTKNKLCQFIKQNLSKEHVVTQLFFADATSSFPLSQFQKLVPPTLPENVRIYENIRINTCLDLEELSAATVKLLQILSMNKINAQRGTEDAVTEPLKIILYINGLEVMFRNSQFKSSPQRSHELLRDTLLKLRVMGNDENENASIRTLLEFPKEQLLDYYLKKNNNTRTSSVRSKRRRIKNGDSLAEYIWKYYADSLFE

Psy3-Csm2-I83A/L87A = molecular target: T3, Psy3-Csm2-I83A/L87A (Saccharomyces cerevisiae, UniProt Q12318;P40465 1-242;1-213, I83A;L87A;Csm2:); assay: EMSA
T3 sequence 1: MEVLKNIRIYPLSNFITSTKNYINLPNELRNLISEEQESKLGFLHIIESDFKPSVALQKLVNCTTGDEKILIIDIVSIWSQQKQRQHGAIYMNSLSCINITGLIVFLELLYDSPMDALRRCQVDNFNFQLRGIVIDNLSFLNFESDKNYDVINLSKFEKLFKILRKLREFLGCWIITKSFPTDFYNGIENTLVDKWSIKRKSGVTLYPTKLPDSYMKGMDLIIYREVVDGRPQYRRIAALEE
T3 sequence 2: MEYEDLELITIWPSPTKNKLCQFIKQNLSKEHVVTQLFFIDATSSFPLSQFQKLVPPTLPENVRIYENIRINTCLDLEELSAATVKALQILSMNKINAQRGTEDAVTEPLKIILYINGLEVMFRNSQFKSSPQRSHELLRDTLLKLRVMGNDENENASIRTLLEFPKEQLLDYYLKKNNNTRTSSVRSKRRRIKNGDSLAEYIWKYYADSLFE

Rad51;Psy3-Csm2 = Rad51;Psy3-Csm2 (Saccharomyces cerevisiae;Saccharomyces …, UniProt P25454;Q12318;P40465 1-400;1-242;1-213, |); assay: EMSA and supershift
Rad51;Psy3-Csm2, sequence (P25454 whole entry, one chain of several): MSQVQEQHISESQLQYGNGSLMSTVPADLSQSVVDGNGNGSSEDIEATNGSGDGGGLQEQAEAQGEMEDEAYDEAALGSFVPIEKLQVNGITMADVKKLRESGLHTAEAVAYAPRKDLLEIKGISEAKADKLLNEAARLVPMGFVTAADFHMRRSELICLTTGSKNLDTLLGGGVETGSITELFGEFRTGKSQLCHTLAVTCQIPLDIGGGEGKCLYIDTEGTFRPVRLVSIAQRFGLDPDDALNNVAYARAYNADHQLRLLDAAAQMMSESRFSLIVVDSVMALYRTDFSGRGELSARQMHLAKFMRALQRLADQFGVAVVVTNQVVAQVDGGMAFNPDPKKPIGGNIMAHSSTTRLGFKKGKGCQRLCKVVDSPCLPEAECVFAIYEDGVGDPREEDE

Measured: binding result

B1: 60-mer oligo-ssDNA (ssDNA)
DNA: TGGGTGAACCTGCAGGTGGGCAAAGATGTCCTAGCAATCCATTGTCTATGACGTCAAGCT
binds: all assays above
